From the Human Domainome abundance scans (Beltran et al. 2025)
± gives the uncertainty stated by the source.

B1: Far upstream element-binding protein 1, residues 98 to 169; numbered along this chain, Q96AE4 (parent)
chain: RSVMTEEYKVPDGMVGFIIGRGGEQISRIQQESGCKIQIAPDSGGLPERSCMLTGTPESVQSAKRLLDQIVE

Variants of: B1
Experiment: abundance fitness (aPCA) (normalised: wild type 0, dead -1); higher = more abundant; growth selection in yeast, the domain comes from the species named
Conditions: Homo sapiens

Row | Variant | abundance fitness
1 | RSVMTEEYKVPDGMVGFIIGRGGEQISRIQQESGCKIQIAPDSGGLPERSCMLTGTPESVQSAKRSLDQIVE [L66S] | -0.029 ± 0.026
2 | RSVMTEEYKVPDGMVGFIIGRGGEQISRIQQESGCKIQIAPDSGGLPERSCMLTGTPESVQSAKRMLDQIVE [L66M] | -0.006 ± 0.033
3 | RSVMTEEYKVPDGMVGFIIGRGGEQISRIQQESGCKIQIAPDSGGLPERSCMLTGTPESVQSAKRPLDQIVE [L66P] | -0.684 ± 0.04
4 | RSVMTEEYKVPDGMVGFIIGRGGEQISRIQQESGCKIQIAPDSGGLPERSCMLTGTPESVQSAKRLLDYIVE [Q69Y] | -0.162 ± 0.039
5 | RSVMTEEYKVPDGMVGFIIGRGGEQISRIQQESGCKIQIAPDSGGLPERSCMLTGTPESVQSAKRLLDEIVE [Q69E] | 0.023 ± 0.03
6 | RSVMTEEYKVPDGMVGFIIGRGGEQISRIQQESGCKIQIAPDSGGLPERSCMLTGTPESVQSAKRLLDGIVE [Q69G] | -0.002 ± 0.023
7 | RSVMTEEYKVPDGMVGFIIGRGGEQISRIQQESGCKIQIAPDSGGLPERSCMLTGTPESVQSAKRLLDFIVE [Q69F] | -0.097 ± 0.036
8 | RSVMTEEYKVPDGMVGFIIGRGGEQISRIQQESGCKIQIAPDSGGLPERSCMLTGTPESVQSAKRLLDHIVE [Q69H] | -0.041 ± 0.047
9 | RSVMTEEYKVPDGMVGFIIGRGGEQISRIQQESGCKIQIAPDSGGLPERSCMLTGTPESVQSAKRLLDKIVE [Q69K] | -0.004 ± 0.033
10 | RSVMTEEYKVPDGMVGFIIGRGGEQISRIQQESGCKIQIAPDSGGLPERSCMLTGTPESVQSAKRLLDLIVE [Q69L] | -0.065 ± 0.024
11 | RSVMTEEYKVPDGMVGFIIGRGGEQISRIQQESGCKIQIAPDSGGLPERSCMLTGTPESVQSAKRLLDWIVE [Q69W] | -0.274 ± 0.029
12 | RSVMTEEYKVPDGMVGFIIGRGGEQISRIQQESGCKIQIAPDSGGLPERSCMLTGTPESVQSAKRLLDIIVE [Q69I] | -0.054 ± 0.036
13 | RSVMTEEYKVPDGMVGFIIGRGGEQISRIQQESGCKIQIAPDSGGLPERSCMLTGTPESVQSAKRLLDAIVE [Q69A] | -0.006 ± 0.026
14 | RSVMTEEYKVPDGMVGFIIGRGGEQISRIQQESGCKIQIAPDSGGLPERSCMLTGTPESVQSAKRLLDSIVE [Q69S] | -0.018 ± 0.026
15 | RSVMTEEYKVPDGMVGFIIGRGGEQISRIQQESGCKIQIAPDSGGLPERSCMLTGTPESVQSAKRLLDPIVE [Q69P] | -0.097 ± 0.034
16 | RSVMTEEYKVPDGMVGFIIGRGGEQISRIQQESGCKIQIAPDSGGLPERSCMLTGTPESVQSAKRLLDVIVE [Q69V] | -0.014 ± 0.026
17 | RSVMTEEYKVPDGMVGFIIGRGGEQISRIQQESGCKIQIAPDSGGLPERSCMLTGTPESVQSAKRLLDNIVE [Q69N] | -0.02 ± 0.038
18 | RSVMTEEYKVPDGMVGFIIGRGGEQISRIQQESGCKIQIAPDSGGLPERSCMLTGTPESVQSAKRLLDRIVE [Q69R] | -0.009 ± 0.022
19 | RSVMTEEYKVPDGMVGFIIGRGGEQISRIQQESGCKIQIAPDSGGLPERSCMLTGTPESVQSAKRLLDCIVE [Q69C] | -0.079 ± 0.033

Row | Variant | abundance fitness
20 | RSVMTEEYKVPDGMVGFIIGRGGEQISRIQQESGCKIQIAPDSGGLPERSCMLTGTPESVQSAKRLLDTIVE [Q69T] | -0.029 ± 0.03
21 | RSVMTEEYKVPDGMVGFIIGRGGEQISRIQQESGCKIQIAPDSGGLPERSCMLTGTPESVQSAKRLSDQIVE [L67S] | -0.648 ± 0.033
22 | RSVMTEEYKVPDGMVGFIIGRGGEQISRIQQESGCKIQIAPDSGGLPERSCMLTGTPESVQSAKRLKDQIVE [L67K] | -0.653 ± 0.042
23 | RSVMTEEYKVPDGMVGFIIGRGGEQISRIQQESGCKIQIAPDSGGLPERSCMLTGTPESVQSAKRLNDQIVE [L67N] | -0.501 ± 0.064
24 | RSVMTEEYKVPDGMVGFIIGRGGEQISRIQQESGCKIQIAPDSGGLPERSCMLTGTPESVQSAKRLFDQIVE [L67F] | -0.121 ± 0.038
25 | RSVMTEEYKVPDGMVGFIIGRGGEQISRIQQESGCKIQIAPDSGGLPERSCMLTGTPESVQSAKRLYDQIVE [L67Y] | -0.815 ± 0.072
26 | RSVMTEEYKVPDGMVGFIIGRGGEQISRIQQESGCKIQIAPDSGGLPERSCMLTGTPESVQSAKRLMDQIVE [L67M] | -0.107 ± 0.035
27 | RSVMTEEYKVPDGMVGFIIGRGGEQISRIQQESGCKIQIAPDSGGLPERSCMLTGTPESVQSAKRLPDQIVE [L67P] | -0.484 ± 0.039
28 | RSVMTEEYKVPDGMVGFIIGRGGEQISRIQQESGCKIQIAPDSGGLPERSCMLTGTPESVQSAKRLGDQIVE [L67G] | -0.583 ± 0.026
29 | RSVMTEEYKVPDGMVGFIIGRGGEQISRIQQESGCKIQIAPDSGGLPERSCMLTGTPESVQSAKRLEDQIVE [L67E] | -0.54 ± 0.03
30 | RSVMTEEYKVPDGMVGFIIGRGGEQISRIQQESGCKIQIAPDSGGLPERSCMLTGTPESVQSAKRLHDQIVE [L67H] | -0.592 ± 0.06
31 | RSVMTEEYKVPDGMVGFIIGRGGEQISRIQQESGCKIQIAPDSGGLPERSCMLTGTPESVQSAKRLCDQIVE [L67C] | -0.161 ± 0.034
32 | RSVMTEEYKVPDGMVGFIIGRGGEQISRIQQESGCKIQIAPDSGGLPERSCMLTGTPESVQSAKRLWDQIVE [L67W] | -0.94 ± 0.038
33 | RSVMTEEYKVPDGMVGFIIGRGGEQISRIQQESGCKIQIAPDSGGLPERSCMLTGTPESVQSAKRLQDQIVE [L67Q] | -0.575 ± 0.045
34 | RSVMTEEYKVPDGMVGFIIGRGGEQISRIQQESGCKIQIAPDSGGLPERSCMLTGTPESVQSAKRLRDQIVE [L67R] | -0.777 ± 0.029
35 | RSVMTEEYKVPDGMVGFIIGRGGEQISRIQQESGCKIQIAPDSGGLPERSCMLTGTPESVQSAKRLDDQIVE [L67D] | -0.412 ± 0.041
36 | RSVMTEEYKVPDGMVGFIIGRGGEQISRIQQESGCKIQIAPDSGGLPERSCMLTGTPESVQSAKRLVDQIVE [L67V] | -0.145 ± 0.026
37 | RSVMTEEYKVPDGMVGFIIGRGGEQISRIQQESGCKIQIAPDSGGLPERSCMLTGTPESVQSAKRLIDQIVE [L67I] | 0.008 ± 0.04
38 | RSVMTEEYKVPDGMVGFIIGRGGEQISRIQQESGCKIQIAPDSGGLPERSCMLTGTPESVQSAKRLTDQIVE [L67T] | -0.534 ± 0.037
